A short description of data set [1]: Construct Stability HPLC in Mouse Serum. The data set is classed as in vitro ADME. Conditions: 37° C., 48 h. The method, then:
(§1) FIG. 8A, FIG. 8B, and FIG. 8C show Purity check and Chemical stability of pHLIP-MMAE conjugates. (FIG. 8A) and (FIG. 8B): HPLC traces of pHLIP(WT)-MMAE and pHLIP(D25E)-MMAE, respectively: Purified conjugates (upper panels), 10 μM of conjugate in cell media (middle panels) and after incubation in cell media for 2 h at pH 5.0 and 37° C. (lower panels). The small peak observed around 27 min in (FIG. 8B) upper panel corresponds to some residual free pHLIP (<15%), which is known to not be cytotoxic (FIG. 7). (FIG. 8C) HPLC traces of Alexa750-pHLIP(WT)-MMAE: Purified conjugate (upper panel), 10 μM Alexa 750-pHLIP(WT)-MMAE before (upper panel) and after 48 h incubation in mouse serum at 37° C. (lower panel). Purity checks and chemical stability runs were performed on different column and with different flow rate, explaining the difference in retention times and peak broadness (see Experimental Section). […]
(§2) Peptide solutions were incubated at either pH 7.4 or pH 5.0 (37° C. and 5% CO2) and 100 μL aliquots were monitored via RP-HPLC at various time points (Agilent Eclipse XDB-C18 […] 9.4×250 mm; flow rate 2 mL/min; phase A: water 0.01% TFA; phase B: acetonitrile 0.01% TFA; gradient 45 min from 95/5 A/B to 0/100 A/B). […] The stability of Alexa750-pHLIP(WT)-MMAE was determined in mouse serum by solubilizing the construct to incubating it at 37° C. and monitoring via RP-HPLC at specific time points.

Data set [2] in a line: Construct Stability HPLC in Cell Media. The data set is classed as physicochemical. Conditions: 10 μM, 2 h at pH 5.0 and 37° C. The method, then:
as §1, §2

The next data set concerns HeLa cells. Description: Anti-proliferation Assay (2 hours treatment at pH 7.4 or 5.0, 72 hours growth, MTT). The method, then: FIG. 3A, FIG. 3C and FIG. 3E show HeLa cells treated with pHLIP(WT)-MMAE, pHLIP(D25E)-MMAE, and MMAE(linker), respectively. FIG. 3B, FIG. 3D and FIG. 3F show MDA-MB-231 cells treated with pHLIP(WT)-MMAE, pHLIP(D25E)-MMAE, and MMAE(linker), respectively. Black columns represent cells treated at pH 7.4 and cells treated at low pH are shown in grey. For each condition, 3,000 cells/well (96-well plate) were seeded, allowed to adhere overnight, treated for 2 hours, washed once with media and grown for 72 hour in complete medium at physiologic pH. Cell viability was assessed with the MTT assay. All measurements were normalized to the media control (0 μM, pH 7.4), as 100% cell viability. Results are shown as mean±SD (n=6-9).
HeLa cells treated with pHLIP(WT)-MMAF (FIG. 9A), pHLIP(D25E)-MMAF (FIG. 9B), pHLIP(P20G)-MMAF (FIG. 9C), and pHLIP(R11Q)-MMAF (FIG. 9D). Circles represent cells treated at pH 7.4 and squares represent cells treated at pH 5.0. Results are shown as the mean±SEM (n=6-9).
Anti-proliferation Assay. HeLa and MDA-MB-231 cells were seeded in 96-well plates at a density of 3,000 cells/well and incubated overnight. Before treatment, construct aliquots were solubilized in an appropriate volume of DMEM without FBS (pH 7.4)—so that upon pH adjustment the desired treatment concentration is obtained—and gently sonicated for 30-60 seconds using a bath sonicator (Branson Ultrasonics). After removal of cell media, this treatment solution was added to each well and incubated at 37° C. for 5-10 minutes. The pH was then adjusted to the desired value using a pre-established volume of DMEM, pH 2.0 buffered with citric acid (final volume=50 μL) and the plate was incubated at 37° C. for 2 hours. After treatment, the media was removed, cells were washed once with 100 μL of complete DMEM, and 100 μL of complete medium was added to each well before returning the plate to the incubator. Treatment solutions were collected and their pH values measured using a micro-combination pH probe (Microelectrodes, Inc.). […] Cell viability was determined after 72 hours using the colorimetric MTT assay. Briefly, 10 μL of a 5 mg/mL MTT stock solution was added to the treated cells and incubated for 2 hours at 37° C. The resulting formazan crystals were solubilized in 200 μL DMSO and the absorbance measured at 580 nm using an Infinite 200 PRO microplate reader (Tecan). Cell viability was calculated against control cells treated with media at physiologic pH.
Inhibition of Cell Proliferation. The ability of pHLIP to move MMAE across the cell membrane and to inhibit cancer cell proliferation in concentration and pH-dependent manners was evaluated. Cell treatments for both pHLIP(WT)-MMAE and pHLIP(D25E)-MMAE constructs were carried out with conjugate concentrations ranging from 1.25 to 10 μM at either pH 7.4 or 5.0. After a 2-hour incubation at 37° C., the treatment media was replaced by fresh media, and cells were grown for an additional 72 hours at normal pH before assessing cell viability using the MTT assay. […] This treatment protocol is quite stringent when compared to the typical multi-days exposure treatments used with free drugs (FIG. 6A and FIG. 6B).

Entries after “also recorded” stand apart in the source; their conditions may differ. Positions of bridges follow the written chain, without caps; N, C: chain ends. Non-standard residues stand in square brackets, D forms with d. Chains are numbered I, II in the order given. *: point of attachment. Dolaproine = CO[C@@H]([C@@H]1CCCN1)[C@@H](C)C(=O)O; Dil = CC[C@H](C)[C@H](NC)[C@@H](CC(=O)O)OC; X1 = C[C@@H](N*)[C@@H](O)c1ccccc1; NMeV = CN[C@H](C(=O)O)C(C)C; Mpa = O=C(O)CCS

“I: H-AAEQNPIYWARYADWLFTTPLLLLDLALLVDADEGTCG-OH / II: [Mpa][NMeV]V[Dil][Dolaproine]-X1 (disulfide I:37-II:1) [pHLIP(WT)-MMAE]”: in data set [1], the stability in serum result is “stable in serum”. In addition, the “degradation in cell media by HPLC or mass spectroscopy” value in data set [2] was “No significant degradation; also recorded: no degradation products are observed”. The “effect on cell proliferation” value in the data set on HeLa cells (pH 7.4, same conditions (1.25 to 10 μM)) is “no or a moderate effect on cell proliferation”. Also, the cytotoxicity result in the data set on HeLa cells (physiological pH, 5 μM) is listed as “only marginal cytotoxicity”.
With “I: H-AAEQNPIYWARYADWLFTTPLLLLELALLVDADEGTCG-NH2 / II: [Mpa][NMeV]V[Dil][Dolaproine]-X1 (disulfide I:37-II:1) [pHLIP(D25E)-MMAE]”, in data set [2], the “degradation in cell media by HPLC or mass spectroscopy” value was “No significant degradation; also recorded: no degradation products are observed”.

The values are drawn from US20170267727A1, “Conjugates of pH Low Insertion Peptide and Monomethyl Auristatins in the Treatment of Solid Tumors” (Lehigh University, priority 2016, published 2017).
